Series [1] is described as follows: confocal immunofluorescence (LSCM), HCT116. As to conditions: glycan lost; control: wild type.
Series [2] in a line: immunofluorescence co-localisation with calnexin and GM130. The following applies: glycan lost; control: cells without S76A mutation.
The nature of series [3]: confocal co-localisation with phalloidin, calnexin, GM130. As to conditions: glycan lost; control: untreated.

B1: Hsp47: S76A (protein)
parent chain: MRSLLLLSAFCLLEAALAAEVKKPAAAAAPGTAEKLSPKAATLAERSAGLAFSLYQAMAKDQAVENILVSPVVVASSLGLVSLGGKATTASQAKAVLSAEQLRDEEVHAGLGELLRSLSNSTARNVTWKLGSRLYGPSSVSFADDFVRSSKQHYNCEHSKINFRDKRSALQSINEWAAQTTDGKLPEVTKDVERTDGALLVNAMFFKPHWDEKFHHKMVDNRGFMVTRSYTVGVMMMHRTGLYNYYDDEKEKLQIVEMPLAHKLSSLIILMPHHVEPLERLEKLLTKEQLKIWMGKMQKKAVAISLPKGVVEVTHDLQKHLAGLGLTEAIDKNKADLSRMSGKKDLYLASVFHATAFELDTDGNPFDQDIYGREELRSPKLFYADHPFIFLVRDTQSGSLLFIGRLVRPKGDKMRDEL
With B1, the “other: collagen I secretion by cells” value in series [1] is “decreases”. The “other: response of collagen I secretion/procollagen transport to kaempferol or OGT knockdown” value in series [2] was “abolishes”.

B2: Hsp47: OSMI-1 (protein)
parent chain: B1 parent chain
Consider B2, for which the localisation_or_trafficking entry in series [3] is recorded as “changes”.

The record behind these values is PMC12435574.
